Data on twelve molecules can be found in article PMC6411776 (2019).

“And” between values parts separate entries of the source, which are not always exact repeats. Identical values can stand only once.

The target in test [1] is Cep152(1140–1295), from E. coli (human). The test is described as follows: SEC-MALS; Cep63(220–541)•Cep152(1140–1295) complex; Superdex 200 Increase 10/300 GL, 4 °C, 20 mM Tris-HCl (pH 8.0), 150 mM NaCl, 0.5 mM TCEP (the methods name the P1•M4d complex).
The target of another test is Cep63 full-length (FL). The test is described as follows: co-immunoprecipitation (IP: FLAG) and immunoblotting. As to conditions: transfected HEK293 cells; FLAG-Cep152 WT or 6A co-expressed with HA-Cep63; blot α-HA, long exposure; parent: 1.0.
The target in test [2] is Cep63 P1b(490–541) (human). The test is described as follows: co-IP; transfected HEK293 cells lysed in TBSN buffer [20 mM Tris-HCl (pH 8.0), 150 mM NaCl, 0.5% Nonidet P-40, 5 mM EGTA, 1.5 mM EDTA]; IP with anti-FLAG or anti-GFP antibody and protein A/G-agarose; immunoblotting.
For test [3], the target named is Cep63 full-length (FL) (human). The description is as above.
Test [4] has as its target Cep152 full-length FL(1–1654) (human). The test is described as follows: co-IP; IP from a mixture of lysates from HEK293 cells transfected separately with each construct; with or without provision of HA-Cep63.
The target in the next test is Cep152 M4e(1205–1272). Kind of test: co-immunoprecipitation (IP: FLAG) and immunoblotting. As to conditions: transfected HEK293 cells; FLAG-Cep152 M4e co-expressed with GFP-Cep63 P1 and GFP-Cep152 M4e; blot α-GFP, M4e band; parent: 1.0.
In test [5] the target is Cep63 P1(424–541), expressed in HEK293 cells. Described as above. As to conditions: transfected HEK293 cells; FLAG-Cep152 M4e co-expressed with GFP-Cep63 P1 and GFP-Cep152 M4e; blot α-GFP, P1 band; parent: 1.0.
The target of test [6] is Cep152 M4e(1205–1272) (human). The test is described as follows: co-IP; transfected HEK293 cells lysed in TBSN buffer [20 mM Tris-HCl (pH 8.0), 150 mM NaCl, 0.5% Nonidet P-40, 5 mM EGTA, 1.5 mM EDTA]; IP with anti-FLAG or anti-GFP antibody and protein A/G-agarose; immunoblotting.
Test [7] deals with Cep152 M4e15(1205–1257), from E. coli (human). Kind of test: SEC-MALS; decreasing concentrations of the P1b5•M4e15 complex; biphasic change of MW, estimated Kd values of two steps of dissociation of the heterotetramer.
Test [8] has the same target. The test is described as follows: AUC; sedimentation velocity of the P1b5•M4e15 complex, 95 to 530 μM; 20 °C; 20 mM Tris (pH 7.5), 100 mM NaCl, 0.5 mM TCEP.
The target of test [9] is Cep152 M4d(1205–1295), from E. coli (human). Kind of test: AUC; sedimentation velocity, complex at 10 μM; 4 °C; 20 mM Tris (pH 7.5), 500 mM NaCl, 10 mM 2-mercaptoethanol, 0.5 mM TCEP, 5% glycerol.
A further test deals with T1, Cep152 (Homo sapiens, UniProt O94986).
T1 chain: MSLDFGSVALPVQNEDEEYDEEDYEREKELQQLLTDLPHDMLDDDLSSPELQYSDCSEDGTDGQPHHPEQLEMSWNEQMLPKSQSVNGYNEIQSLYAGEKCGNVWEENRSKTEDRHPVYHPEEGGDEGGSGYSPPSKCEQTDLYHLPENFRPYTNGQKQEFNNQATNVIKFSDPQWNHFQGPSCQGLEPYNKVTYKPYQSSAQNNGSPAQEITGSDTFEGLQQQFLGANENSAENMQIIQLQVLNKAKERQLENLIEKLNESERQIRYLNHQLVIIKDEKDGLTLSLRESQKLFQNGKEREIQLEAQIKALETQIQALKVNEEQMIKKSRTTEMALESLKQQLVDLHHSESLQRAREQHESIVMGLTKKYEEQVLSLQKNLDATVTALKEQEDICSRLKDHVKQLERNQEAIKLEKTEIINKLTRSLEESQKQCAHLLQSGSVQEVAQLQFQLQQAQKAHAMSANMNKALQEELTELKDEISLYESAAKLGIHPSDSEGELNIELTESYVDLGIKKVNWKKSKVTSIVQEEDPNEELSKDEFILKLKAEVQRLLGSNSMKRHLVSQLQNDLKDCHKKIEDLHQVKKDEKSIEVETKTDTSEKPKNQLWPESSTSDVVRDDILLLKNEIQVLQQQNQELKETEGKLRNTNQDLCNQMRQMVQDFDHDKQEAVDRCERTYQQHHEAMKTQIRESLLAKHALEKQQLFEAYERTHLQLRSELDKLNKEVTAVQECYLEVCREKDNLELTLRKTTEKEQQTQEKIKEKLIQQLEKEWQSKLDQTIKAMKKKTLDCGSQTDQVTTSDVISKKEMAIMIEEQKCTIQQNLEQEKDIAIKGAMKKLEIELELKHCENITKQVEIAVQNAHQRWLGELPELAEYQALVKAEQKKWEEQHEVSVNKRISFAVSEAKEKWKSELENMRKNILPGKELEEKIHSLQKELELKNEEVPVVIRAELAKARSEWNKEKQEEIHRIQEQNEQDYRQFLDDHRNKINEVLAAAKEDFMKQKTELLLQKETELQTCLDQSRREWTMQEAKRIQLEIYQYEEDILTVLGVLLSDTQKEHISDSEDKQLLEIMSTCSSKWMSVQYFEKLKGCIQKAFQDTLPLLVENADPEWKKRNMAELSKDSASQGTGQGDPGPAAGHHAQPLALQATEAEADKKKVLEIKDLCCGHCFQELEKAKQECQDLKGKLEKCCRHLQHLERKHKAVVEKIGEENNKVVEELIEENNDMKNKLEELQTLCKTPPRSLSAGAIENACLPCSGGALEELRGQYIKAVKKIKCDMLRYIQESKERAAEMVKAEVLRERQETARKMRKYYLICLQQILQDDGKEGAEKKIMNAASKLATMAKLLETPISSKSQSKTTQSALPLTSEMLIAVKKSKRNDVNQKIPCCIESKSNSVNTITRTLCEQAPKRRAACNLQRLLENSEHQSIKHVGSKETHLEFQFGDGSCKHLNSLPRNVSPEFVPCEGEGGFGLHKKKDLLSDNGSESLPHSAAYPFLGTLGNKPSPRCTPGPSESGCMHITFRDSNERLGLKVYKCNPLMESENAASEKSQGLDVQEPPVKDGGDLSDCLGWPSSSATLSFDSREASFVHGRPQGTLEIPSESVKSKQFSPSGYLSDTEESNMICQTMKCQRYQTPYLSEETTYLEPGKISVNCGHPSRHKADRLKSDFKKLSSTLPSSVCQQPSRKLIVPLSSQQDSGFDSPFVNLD
Kind of test: SEC-MALS.

Regarding “His-Cep63(220–541), from E. coli (domain or fragment)”, the stoichiometry N (Cep63:Cep152 (printed as 2:2)) in test [1] came to 1.
For the molecule “Cep152 full-length FL(1–1654) L1207A; L1210A; Y1214A; I1221A; M1225A; Y1228A”, the ratio to parent with Cep63 full-length (FL) is 0.1.
In turn, “GFP-Cep152 M4e13(1205–1260) (domain or fragment)” returned a loss of co-precipitation against the P1b–M4e pair in test [2] of 40%.
In turn, “Cep63 full-length (FL) (natural protein)” came in with a fold increase of the co-precipitate on provision of Cep152 in test [3] of 8 fold.
As for “Cep152 full-length FL(1–1654) (natural protein)”, the fold increase of the co-precipitate on provision of Cep63 in [4] amounted to 8 fold.
For the molecule Cep152 M4e(1205–1272) 11A, the ratio to parent (with Cep152 M4e(1205–1272); in test [5]) was 0 throughout.
In turn, “GFP-Cep63 P1b5(502–541) (domain or fragment)” displayed a loss of co-precipitation against the P1b–M4e pair in test [6] of 40%.
With Cep152 M4e(1205–1272) 5A, the ratio to parent turned out to be 0.7 with Cep152 M4e(1205–1272) and 0.9 in test [5].
As for “His-Cep63 P1b5(502–541), from E. coli (pKM5500) (domain or fragment)”, the Kd of one of two steps of dissociation of the 2:2 heterotetramer (step not assigned) in test [7] was 60 µM. The molecule further showed a stoichiometry N (Cep63:Cep152 (printed as 2:2)) in [8] of 1.
On to “His-Cep63 P1(424–541), from E. coli (domain or fragment)”, for which, in test [9], the stoichiometry N (Cep63:Cep152 (printed as 2:2)) came out at 1.
As for “Cep152 M4e(1205–1272) L1207A; L1210A; Y1214A; I1221A; M1225A; Y1228A”, the ratio to parent is 0.1 in the test with Cep152 M4e(1205–1272) and 0 in test [5].

B1: Cep63 (protein)
chain: MEALLEGIQNRGHGGGFLTSCEAELQELMKQIDIMVAHKKSEWEGRTHALETCLKIREQELKSLRSQLDVTHKEVGMLHQQVEEHEKIKQEMTMEYKQELKKLHEELCILKRSYEKLQKKQMREFRGNTKNHREDRSEIERLTAKIEEFRQKSLDWEKQRLIYQQQVSSLEAQRKALAEQSEIIQAQLVNRKQKLESVELSSQSEIQHLSSKLERANDTICANELEIERLTMRVNDLVGTSMTVLQEQQQKEEKLRESEKLLEALQEEKRELKAALQSQENLIHEARIQKEKLQEKVKATNTQHAVEAIRPREESLAEKKYTSQGQGDLDSVLSQLNFTHTSEDLLQAEVTCLEGSLESVSATCKQLSQELMEKYEELKRMEAHNNEYKAEIKKLKEQILQGEQSYSSALEGMKMEISHLTQELHQRDITIASTKGSSSDMEKRLRAEMQKAEDKAVEHKEILDQLESLKLENRHLSEMVMKLELGLHEAKEISLADLQENYIEALNKLVSENQQLQKDLMNTKSQLEISTQMCKKQNDRIFKPTHSRTTEFKNTEFKPTHGQHRHDGIKTEHYKTDLHSPRGQASDSINPMSRVLSPLSPQISPCSSTRSLTSYSLCKTHSLPSALDTNEANFSDTMSESMNDQEEFISSCSLPVSPLGSIATRFLEEEELRSHHILERLDAHIEELKRESEKTVRQFTALK
On to B1, for which the equilibrium dissociation constant (Kd) in the test with Cep152 is ~60 µM and ~117 µM.
